From doi:10.1101/2024.09.05.611543 (bioRxiv, 2024)

Biological target: the molecule itself
Assay: SEC-MALS

Protein | stoichiometry N
CaKip3 NE-PT (neck extension and proximal tail; residues 444-707), His6-MBP fusion (domain or fragment, Candida albicans, UniProt A0A1D8PKA4 444-707, looked up) VGSYLKMITEQKQEIEELRARESKMVESTINKRKDLESKVFKILFESLESTRKAIAKQNQEKWKKYFILAKRKLLLSQKIETELVLEQRDDIDINSLSIASGNESESVFKIYDLCEQLISKIEYQLPQLESQYSQPTDLDYILEDSAMQTLKRLQDEEGWTEHHSAIYRQSIQSMKREVHTDLLLYSSILYDNLIHDLSIFFYIPREIGNFINNISNPTSLNEANQELLYNMTLGLENLLNGEFDSAMEHYAMDYMKNKVESEN | 2
CaKip3 PT (proximal tail only; residues 475-707), His6-MBP fusion (domain or fragment, Candida albicans, UniProt A0A1D8PKA4 475-707, looked up) KRKDLESKVFKILFESLESTRKAIAKQNQEKWKKYFILAKRKLLLSQKIETELVLEQRDDIDINSLSIASGNESESVFKIYDLCEQLISKIEYQLPQLESQYSQPTDLDYILEDSAMQTLKRLQDEEGWTEHHSAIYRQSIQSMKREVHTDLLLYSSILYDNLIHDLSIFFYIPREIGNFINNISNPTSLNEANQELLYNMTLGLENLLNGEFDSAMEHYAMDYMKNKVESEN | 2
CaKip3 MD-PT (motor domain, neck linker, neck extension and proximal tail domain; residues 1-707) (domain or fragment, Candida albicans, UniProt A0A1D8PKA4 1-707, looked up) MSYPNSLGSPATVTSTSVPTAKQSSISVAVRVRPFTEAESNRLVKIDNDDVFLGDGCLTSDNNNNNNNSNSNGNGNGNGSSAANSSGASTSRRAIFNTLGGLRKIINVVDDRMLIFDPPETNPLTKMQRNAFPNSFKGSRIREHRFVFDRLFDEDCTQDQVYRNTTQPLLDSVLDGYNATVFAYGATGCGKTHTISGTPEDPGVIFLTMKELYNRIEELKDTKIIDISLSYLEIYNETIRDLLNPMTQCKNLVIREDANNKISVSNLSRHRPNSVEEVMQLILEGNKNRTCSPTEANATSSRSHAVLQINVIQKDRTGDITEEHTFATLSIIDLAGSERAAATKNRGARLNEGANINKSLLALGNCINALCDPRRRNHVPYRDSKLTRLLKFSLGGNCKTVMIVCVSPSSQHYDETLNTLKYADRAKEIKTKLIRNQHNLDRHVGSYLKMITEQKQEIEELRARESKMVESTINKRKDLESKVFKILFESLESTRKAIAKQNQEKWKKYFILAKRKLLLSQKIETELVLEQRDDIDINSLSIASGNESESVFKIYDLCEQLISKIEYQLPQLESQYSQPTDLDYILEDSAMQTLKRLQDEEGWTEHHSAIYRQSIQSMKREVHTDLLLYSSILYDNLIHDLSIFFYIPREIGNFINNISNPTSLNEANQELLYNMTLGLENLLNGEFDSAMEHYAMDYMKNKVESEN | 2
